This passage reports ratio to parent results from paper PMC10465357.

The target of the test is 14-3-3 proteins. Nature of the test: Western blot of purified virions, quantified. The note with it: read off a plot. On the technique in general: In western blotting, separated proteins are transferred to a membrane and probed.

Turning to UL32 (also known as pp150) 3mut, the ratio to parent was determined as 0.48. Consider UL32 (also known as pp150) 3/4mut, for which the ratio to parent turned out to be 0.06.

With UL32 (also known as pp150) 4/5mut, the ratio to parent worked out at 0.02.
